Values belong to the binder of their own block, whether it stands above or below them. Numbered stars: 1 amine (or outer) side, 2 acyl side, 3 side chain; on linkers, the order of the positions; unused ones are H or OH. Bridge positions count the residues as written; N and C are the ends. Side chains are listed from the residue outwards. Ends that are not written are not given here. * marks the point of attachment. C20 diacid = O=C(O)CCCCCCCCCCCCCCCCCCC(=O)*; γGlu = O=C(O)[C@H](CCC(=O)[*:2])N[*:1]; AEEA = NCCOCCOCC(=O)O
Legend:
[1] = molecular target: T1, rat calcitonin receptor (rat, UniProt P32214 25-516); assay: ratio of binding IC50s: rat calcitonin receptor / rat amylin receptor (reference)
T1 construct: whole, on cells; Membranes prepared from transiently transfected BHK tk'ts 13 cells (Assay VIII); also called rCTR; rCT
T1 sequence (looked up): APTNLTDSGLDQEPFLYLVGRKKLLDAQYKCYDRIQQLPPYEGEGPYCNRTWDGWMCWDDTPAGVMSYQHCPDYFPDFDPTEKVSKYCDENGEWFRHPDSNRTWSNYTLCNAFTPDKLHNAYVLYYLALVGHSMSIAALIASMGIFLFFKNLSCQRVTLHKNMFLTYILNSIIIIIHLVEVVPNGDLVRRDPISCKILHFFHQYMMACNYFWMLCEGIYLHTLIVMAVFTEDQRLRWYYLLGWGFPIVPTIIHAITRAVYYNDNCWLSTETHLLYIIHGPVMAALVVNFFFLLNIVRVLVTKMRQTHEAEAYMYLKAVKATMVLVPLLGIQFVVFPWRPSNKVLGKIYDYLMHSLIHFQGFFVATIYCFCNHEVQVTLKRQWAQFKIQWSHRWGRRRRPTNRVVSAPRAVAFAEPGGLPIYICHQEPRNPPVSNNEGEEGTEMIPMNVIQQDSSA

[2] = molecular target: T1, rat calcitonin receptor; assay: SPA competition vs 125I-calcitonin, membranes of BHK cells with rat calcitonin receptor (Assay VIII)
[3] = molecular target: T2, rat amylin receptor (rat calcitonin receptor + rat RAMP 3) (rat, UniProt P32214 25-516; Q9JJ73 23-147); assay: SPA competition vs 125I-rat amylin, membranes of BHK cells with rat calcitonin receptor + rat RAMP3 (Assay VI)
T2 construct: whole, on cells; Membranes prepared from transiently transfected BHK tk'ts 13 cells (Assay VI); also called rAmylin-R; rAmylin
T2 sequence (looked up) 1: T1 sequence (looked up)
T2 sequence (looked up) 2: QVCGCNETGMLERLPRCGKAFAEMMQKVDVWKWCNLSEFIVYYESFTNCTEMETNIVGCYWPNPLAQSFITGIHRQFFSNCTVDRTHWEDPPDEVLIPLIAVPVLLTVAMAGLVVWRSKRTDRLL
Procedure: The binding assay was performed using scintillation proximity assay (SPA) beads (RPNQ0001) from PerkinElmer and cell membranes from the Amylin 3(a)/CRE-luc cells (as described in Assay (II)) were used. Membranes were prepared in the following way; the cells were rinsed with PBS and incubated with Versene for approximately 5 min before harvesting. The cells were flushed with PBS and the cell-suspension was centrifuged for 5 min at 1000 rpm. Cells were homogenized (ultrathurrax) in a buffer containing 20 mM Na-HEPES and 10 mM EDTA (pH 7.4) and centrifuged at 20.000 rpm for 15 min. The resulting pellet was resuspended, homogenized and centrifuged (20.000 rpm, 15 min) in a buffer containing 20 mM Na-HEPES and 0.1 mM EDTA (pH 7.4, buffer 2). The resulting pellet was resuspended in buffer 2 and protein concentration was measured (BCA protein Assay, Pierce). The homogenate was kept cold during the whole procedure. The membranes were kept at −80° C. until use. The assay was performed in a 384 well Optiplate (PerkinElmer) in a total volume of 40 ul. Membranes were mixed with SPA beads. Final concentration of membranes 35 ng/μL final and SPA beads was 0.05 mg/well. Test-compounds were dissolved in DMSO and further diluted in assay buffer (50 mM Hepes, pH 7.4, 1 mM CaCl2, 5 mM MgCl₂, 0.1% OA and 0.02% Tween20). […] The final mixture was incubated with shaking at 400 rpm for 120 min at 25° C. prior to centrifugation (1500 rpm, 10 min). Samples were analyzed on TopCounter™ (Packard). The IC₅₀ was calculated using (one site binding competition analysis) GraphPad Prism5 as a measure of receptor affinity.
Cells were grown in DMEM with 10% FBS and 1% Pen/Strep. Approximately 48 hours after transfection, the cells were harvested and membranes were prepared.

[4] = molecular target: T3, human calcitonin receptor (human, UniProt P30988 25-474); assay: ratio of binding IC50s: human calcitonin receptor / human amylin receptor (reference)
T3 construct: whole, on cells; Membranes prepared from a stably transfected BHK cell line (Assay VII); also called hCTR; hCT
T3 sequence (looked up): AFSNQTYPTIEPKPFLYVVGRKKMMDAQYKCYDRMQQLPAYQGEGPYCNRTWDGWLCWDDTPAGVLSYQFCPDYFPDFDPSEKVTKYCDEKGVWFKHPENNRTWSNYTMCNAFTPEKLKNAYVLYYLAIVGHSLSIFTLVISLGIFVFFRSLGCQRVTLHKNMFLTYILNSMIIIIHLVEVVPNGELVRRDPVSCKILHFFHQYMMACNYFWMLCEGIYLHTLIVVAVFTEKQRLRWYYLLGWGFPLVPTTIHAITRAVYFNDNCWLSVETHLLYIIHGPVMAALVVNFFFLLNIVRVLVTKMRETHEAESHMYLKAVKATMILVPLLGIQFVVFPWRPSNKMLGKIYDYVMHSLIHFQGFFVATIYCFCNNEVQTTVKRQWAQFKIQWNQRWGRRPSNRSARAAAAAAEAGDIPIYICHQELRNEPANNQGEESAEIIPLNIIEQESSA
Procedure: The resulting pellet was resuspended, homogenized and centrifuged (20.000 rpm, 15 min) in a buffer containing 20 mM Na-HEPES and 0.1 mM EDTA (pH 7.4, buffer 2). The resulting pellet was resuspended in buffer 2 and protein concentration was measured (BCA protein Assay, Pierce). The homogenate was kept cold during the whole procedure. The membranes were kept at −80° C. until use. The assay was performed in a 384 well Optiplate (PerkinElmer) in a total volume of 40 ul. Membranes were mixed with SPA beads. Final concentration of membranes 35 ng/μL final and SPA beads was 0.05 mg/well. Test-compounds were dissolved in DMSO and further diluted in assay buffer (50 mM Hepes, pH 7.4, 1 mM CaCl2, 5 mM MgCl₂, 0.1% OA and 0.02% Tween20). […] The final mixture was incubated with shaking at 400 rpm for 120 min at 25° C. prior to centrifugation (1500 rpm, 10 min). Samples were analyzed on TopCounter™ (Packard). The IC₅₀ was calculated using (one site binding competition analysis) GraphPad Prism5 as a measure of receptor affinity.
Membranes were prepared in the following way; the cells were rinsed with PBS and incubated with Versene for approximately 5 min before harvesting. The cells were flushed with PBS and the cell-suspension was centrifuged for 5 min at 1000 rpm. Cells were homogenized (Ultrathurrax) in a buffer containing 20 mM Na-HEPES and 10 mM EDTA (pH 7.4) and centrifuged at 20.000 rpm for 15 min. The resulting pellet was resuspended, homogenized and centrifuged (20.000 rpm, 15 min) in a buffer containing 20 mM Na-HEPES and 0.1 mM EDTA (pH 7.4, buffer 2). The resulting pellet was resuspended in buffer 2 and protein concentration was measured (BCA protein Assay, Pierce). The homogenate was kept cold during the whole procedure. The membranes were kept at −80° C. until use. Assay was performed in a 384 well Optiplate (PerkinElmer) in a total volume of 40 ul. Membranes were mixed with SPA beads.

[5] = molecular target: T4, rat amylin receptor (rat calcitonin receptor + rat RAMP 3) (rat, UniProt P32214 25-516; Q9JJ73 23-147); assay: SPA competition with 125I-rat amylin, membranes of BHK cells with rat calcitonin receptor + rat RAMP3 (Assay VI)
T4 construct: whole, on cells; also called rAmylin-R; rat amylin 3(a) receptor
T4 sequence (looked up) 1: T1 sequence (looked up)
T4 sequence (looked up) 2: T2 sequence (looked up) 2

[6] = molecular target: T5, rat calcitonin receptor (rat, UniProt P32214 25-516); assay: SPA competition with 125I-calcitonin, membranes of BHK cells with rat calcitonin receptor (Assay VIII)
T5 construct: whole, on cells; also called rCTR; rat calcitonin (a) receptor
T5 sequence (looked up): T1 sequence (looked up)

- Ratio rCT/rAmylin binding [1]: 104
- IC50 [2]: 46.8 nM
- IC50 [3]: 0.45 nM
- Ratio hCT/hAmylin binding [4]: 65.3
B1: N^ε1-[2-[2-[2-[[(4S)-4-carboxy-4-(19-carboxynonadecanoylamino)butanoyl]amino]ethoxy]ethoxy]acetyl]-[His14,Arg17,Pro21,Pro27]-h-amylin (peptide)
peptide: K([AEEA-γGlu-C20 diacid])CNTATCATQRLAHFLRHSSPNFGAIPSSTNVGSNTY-NH2
modifications: disulfide 2-7; N-terminus assumed
SMILES: CC[C@H](C)[C@H](NC(=O)[C@H](C)NC(=O)CNC(=O)[C@H](Cc1ccccc1)NC(=O)[C@H](CC(N)=O)NC(=O)[C@@H]1CCCN1C(=O)[C@H](CO)NC(=O)[C@H](CO)NC(=O)[C@H](Cc1c[nH]cn1)NC(=O)[C@H](CCCNC(=N)N)NC(=O)[C@H](CC(C)C)NC(=O)[C@H](Cc1ccccc1)NC(=O)[C@H](Cc1c[nH]cn1)NC(=O)[C@H](C)NC(=O)[C@H](CC(C)C)NC(=O)[C@H](CCCNC(=N)N)NC(=O)[C@H](CCC(N)=O)NC(=O)[C@@H](NC(=O)[C@H](C)NC(=O)[C@@H]1CSSC[C@H](NC(=O)[C@@H](N)CCCCNC(=O)COCCOCCNC(=O)CC[C@H](NC(=O)CCCCCCCCCCCCCCCCCCC(=O)O)C(=O)O)C(=O)N[C@@H](CC(N)=O)C(=O)N[C@@H]([C@@H](C)O)C(=O)N[C@@H](C)C(=O)N[C@@H]([C@@H](C)O)C(=O)N1)[C@@H](C)O)C(=O)N1CCC[C@H]1C(=O)N[C@@H](CO)C(=O)N[C@@H](CO)C(=O)N[C@H](C(=O)N[C@@H](CC(N)=O)C(=O)N[C@H](C(=O)NCC(=O)N[C@@H](CO)C(=O)N[C@@H](CC(N)=O)C(=O)N[C@H](C(=O)N[C@@H](Cc1ccc(O)cc1)C(N)=O)[C@@H](C)O)C(C)C)[C@@H](C)O
notes: Analogue of human amylin; also called compound 69

- IC50 [5]: 0.335 nM
- IC50 [6]: 159 nM
B2: N^ε1-[(4S)-4-carboxy-4-[[(4S)-4-carboxy-4-(19-carboxynonadecanoylamino)butanoyl]amino]butanoyl]-[Asp14,Arg17,Pro21,Pro27,Arg35]-h-amylin (peptide)
peptide: K([γGlu-γGlu-C20 diacid])CNTATCATQRLADFLRHSSPNFGAIPSSTNVGSRTY-NH2
modifications: disulfide 2-7; N-terminus assumed
SMILES: CC[C@H](C)[C@H](NC(=O)[C@H](C)NC(=O)CNC(=O)[C@H](Cc1ccccc1)NC(=O)[C@H](CC(N)=O)NC(=O)[C@@H]1CCCN1C(=O)[C@H](CO)NC(=O)[C@H](CO)NC(=O)[C@H](Cc1c[nH]cn1)NC(=O)[C@H](CCCNC(=N)N)NC(=O)[C@H](CC(C)C)NC(=O)[C@H](Cc1ccccc1)NC(=O)[C@H](CC(=O)O)NC(=O)[C@H](C)NC(=O)[C@H](CC(C)C)NC(=O)[C@H](CCCNC(=N)N)NC(=O)[C@H](CCC(N)=O)NC(=O)[C@@H](NC(=O)[C@H](C)NC(=O)[C@@H]1CSSC[C@H](NC(=O)[C@@H](N)CCCCNC(=O)CC[C@H](NC(=O)CC[C@H](NC(=O)CCCCCCCCCCCCCCCCCCC(=O)O)C(=O)O)C(=O)O)C(=O)N[C@@H](CC(N)=O)C(=O)N[C@@H]([C@@H](C)O)C(=O)N[C@@H](C)C(=O)N[C@@H]([C@@H](C)O)C(=O)N1)[C@@H](C)O)C(=O)N1CCC[C@H]1C(=O)N[C@@H](CO)C(=O)N[C@@H](CO)C(=O)N[C@H](C(=O)N[C@@H](CC(N)=O)C(=O)N[C@H](C(=O)NCC(=O)N[C@@H](CO)C(=O)N[C@@H](CCCNC(=N)N)C(=O)N[C@H](C(=O)N[C@@H](Cc1ccc(O)cc1)C(N)=O)[C@@H](C)O)C(C)C)[C@@H](C)O
notes: synthetic analogue of human amylin; also called compound 52
